Results as given in patent US10751422B2, “Antibody drug conjugates (ADC) that bind to FLT3 proteins” (AGENSYS, INC., priority 2015, dated 2020).

Columns and labels:
Raji = experiment: ADCC activity in vitro (CytoTox 96 LDH assay), positive control cell line Raji; format: cell-based; conditions: effector normal human PBMC, E:T=100:1, 2.5 ug/mL, 4 hours
Flt3 protein = Flt3 protein (Homo sapiens, UniProt P36888); experiment: Binding of hybridoma MAb to Flt3 protein and Flt3 expressing cells; conditions: recombinant and endogenous cells
Text: MAbs to FLT3 were generated using VelocImmune® technology (Regeneron, Tarrytown, N.Y.) wherein genetically engineered mice make antibodies that have fully human variable regions and mouse constant regions. The MAb designated v62-1b21 (also known as AGS62.21) was generated after immunizing VelocImmune® mice with recombinant human FLT3 protein.

RS-4-11 = format: cell-based, human
Protocol: Briefly, The RS-4-11 cells were seeded in 50 μl of complete media at a density of 3000 cells per well onto 96 well plates and placed in a tissue culture incubator at 37° C.; 5% CO2. The next day, the ADCs were prepared in complete media at 10 μg/mL and serially diluted 1:5 for a total of 9 points. […] At the end of the incubation period, 20 μl of Presto Blue was added to each well and incubated for 2 hours. The plates were read using a BioTek Synergy H4 plate reader using 540 Excitation and 590 Emission wavelengths and graphed using Graphpad Prism software.

EOL-1 = EOL-1 cell growth with human FLT3 ligand and antibody (Cell Titer Glo, 5 days); format: cell-based; conditions: 50, 10 or 5 ng/mL, no antibody
Protocol: The ability of FLT3 antibodies (CHv62.21 and v62-1b37.1) to mediate the effect of human FLT3 ligand was evaluated using the human leukemia EOL-1 cell line, which endogenously expresses FLT3. Isotype control antibody (mLys-1c3.1) was also used. […] The next day, cells were treated with 50, 10 or 5 ng/mL of human FLT3 ligand (in 25 μl of complete media) and 10, 1, 0.1 and 0 μg/mL of test antibody (in 25 μl of complete media). Media alone was used as the untreated control. […] At the end of the incubation period, 100 μl of Cell Titer Glo was added to each well and incubated for 30 minutes, shaking, at room temperature.

Molecule: Rituximab
- ADCC activity (Raji): confirms ADCC activity

B1: v62-1b21: hybridoma FLT3 MAb from VelocImmune mice, fully human variable regions and mouse constant regions (antibody, V domains shown)
VH: EVQLVESGGGLVRPGGSLRLSCAASGFTFSGYSINWVRQAPGKGLEWVSSISSSSNYIYYADSVKGRFTISRDNAKNSLYLQMNSLRAEDTAVYYCAREGFIAGTTFDAFDIWGQGTMVTVSS
VL: DIQMTQSPSSLSASVGDRVTITCRASQGIRNDLGWYQQKPGKAPKRLIYAASSLQSGVPSRFSGSGSGTEFTLTISSLQPEDFATYYCLQHNGFPYTFGQGTKLEIKR
- binding to Flt3 protein and Flt3 expressing cells (Flt3 protein): specifically binds to Flt3 protein and Flt3 expressing cells

B2: v62-1b21.1-AGL-0129-08 (conjugate)
VH: B1 VH
VL: B1 VL
- cytotoxicity (RS-4-11): can induce cytotoxicity

B3: Human FLT3 ligand: human FLT3 ligand, purchased from R and D Systems (protein)
chain: TQDCSFQHSPISSDFAVKIRELSDYLLQDYPVTVASNLQDEELCGGLWRLVLAQRWMERLKTVAGSKMQGLLERVNTEIHFVTKCAFQPPPSCLRFVQTNISRLLQETSEQLVALKPWITRQNFSRCLELQCQPDSSTLPPPWSPRPLEATAPTAPQPP
- effect of human FLT3 ligand alone on growth of EOL-1 cells (EOL-1): has no effect on growth
